Test results: the supplement of paper PMC7877785
± gives the uncertainty stated by the source.

Assay: self-splicing fitness, log relative to wild type (ln ratio); higher = more splicing; Tetrahymena group I intron in knt gene, E. coli kanamycin selection, DiMSum; sequences stand for … in CUCUCU…GGAGGGAAAAGUUAUCAGGCAUGCACCUGGUAGCUAGUCUUUAAACCAAUAGAUUGCAUCGGUUUAAAAGGCAAGACCGUCAAAUUGCGGGAAAGGGGUCAACAGCCGUUCAGUACCAAGUCUCAGGGGAAACUUUGAGAUGGCCUUGCAAAGGGUAUGGUAAUAAGCUGACGGACAUGGUCCUAACCACGCAGCCAAGUCCUAAGUCAACAGAUCUUCUGUUGAUAUGGAUGCAGUUCACAGACUAAAUGUCGGUCGGGGAAGAUGUAUUCUUCUCAUAAGAUAUAGUCGGACCUCUCCUUAAUGGGAGCUAGCGGAUGAAGUGAUGCAACACUGGAGCCGCUGGGAACUAAUUUGUAUGCGAAAGUAUAUUGAUUAGUUUUGGAGUACUCGUGGUCG
How it was run: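 Colonies from six replicate transformations of E. coli BL21(DE3) were pooled and amplicon-sequenced on an Illumina HiSeq 2500. The library placed an intron with all eight P1ex-region nucleotides randomised inside the knt kanamycin-resistance gene on pET-22b(+), and cells grew overnight at 37°C or 30°C on LB agar with or without 25 μg/mL kanamycin (plus 100 μg/mL carbenicillin, 50 μM IPTG, 0.2% rhamnose). Fitness is the DiMSum error-weighted combination of wild-type-normalised replicate fold changes, kanamycin versus none.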

Sequence | self-splicing fitness (ln) (37 °C) | self-splicing fitness (ln) (30 °C)
CCUUAGCAAUAUUACGCAUC | -2.77 ± 0.48 | –
CCUUAGCAAUAUUACGCCAU | -1.57 ± 0.29 | -2.87 ± 0.48
CCUUAGCAAUAUUACGCCCU | – | -1.89 ± 0.48
CCUUAGCAAUAUUACGCGAC | -2.12 ± 0.28 | -3.16 ± 0.26
CCUUAGCAAUAUUACGCGAU | -3.16 ± 0.22 | –
CCUUAGCAAUAUUACGCGUG | -2.61 ± 0.12 | -2.33 ± 0.12
CCUUAGCAAUAUUACGCUUA | -2.66 ± 0.33 | -3.61 ± 0.34
CCUUAGCAAUAUUACGGACG | -0.586 ± 0.17 | -1 ± 0.13
CCUUAGCAAUAUUACGGCAA | -2.54 ± 0.24 | -3.57 ± 0.33
CCUUAGCAAUAUUACGGCGC | – | -2.98 ± 0.27
CCUUAGCAAUAUUACGGGCC | -2.54 ± 0.35 | -2.94 ± 0.31
CCUUAGCAAUAUUACGGUCG | -0.755 ± 0.097 | -0.919 ± 0.092
CCUUAGCAAUAUUACGGUUA | -2.24 ± 0.16 | -3.48 ± 0.24
CCUUAGCAAUAUUACGUACC | – | -3.04 ± 0.45
CCUUAGCAAUAUUACGUCGC | -2.66 ± 0.38 | -3.07 ± 0.4
CCUUAGCAAUAUUACGUCGG | -1.37 ± 0.15 | -3.99 ± 0.26
CCUUAGCAAUAUUACGUGCA | -3.76 ± 0.28 | -3.43 ± 0.23
CCUUAGCAAUAUUACGUUAG | -2.67 ± 0.26 | -4.07 ± 0.21
CCUUAGCAAUAUUACGUUGU | -3.27 ± 0.24 | -3.12 ± 0.17
CCUUAGCAAUAUUACGUUUG | -2.47 ± 0.18 | -3.99 ± 0.24
CGAAAGCAAUAUUACGAACC | -0.796 ± 0.16 | -0.666 ± 0.14
CGAAAGCAAUAUUACGACUU | -0.99 ± 0.14 | -1.64 ± 0.12
CGAAAGCAAUAUUACGAGAG | -2.58 ± 0.18 | -3.12 ± 0.17
CGAAAGCAAUAUUACGAUCU | 0.313 ± 0.11 | -0.599 ± 0.076
CGAAAGCAAUAUUACGAUUC | -2.13 ± 0.26 | –

Sequence | self-splicing fitness (ln) (37 °C) | self-splicing fitness (ln) (30 °C)
CGAAAGCAAUAUUACGCAGG | -1.4 ± 0.093 | -2.16 ± 0.091
CGAAAGCAAUAUUACGCGGC | -2.38 ± 0.31 | -2.81 ± 0.3
CGAAAGCAAUAUUACGCGGG | -1.88 ± 0.19 | -2.77 ± 0.18
CGAAAGCAAUAUUACGCUCA | 0.0149 ± 0.13 | -0.156 ± 0.094
CGAAAGCAAUAUUACGGCGC | -0.908 ± 0.15 | -1.14 ± 0.13
CGAAAGCAAUAUUACGGGAU | -2.87 ± 0.27 | -2.98 ± 0.21
CGAAAGCAAUAUUACGGGGA | -1.85 ± 0.2 | -3.09 ± 0.31
CGAAAGCAAUAUUACGGUCG | -2.19 ± 0.16 | -2.88 ± 0.15
CGAAAGCAAUAUUACGGUGA | -0.808 ± 0.11 | -1.52 ± 0.084
CGAAAGCAAUAUUACGUAAC | -0.987 ± 0.5 | –
CGAAAGCAAUAUUACGUAGC | -2.39 ± 0.27 | -3.4 ± 0.29
CGAAAGCAAUAUUACGUCAG | 0.335 ± 0.11 | -1.1 ± 0.08
CGAAAGCAAUAUUACGUGCA | -1.13 ± 0.12 | -2.12 ± 0.12
CGAAAGCAAUAUUACGUGCC | -1.95 ± 0.17 | -3.18 ± 0.17
CGAAAGCAAUAUUACGUGCG | -0.524 ± 0.097 | -1.22 ± 0.076
CGACAGCAAUAUUACGAACC | -0.556 ± 0.2 | -3.27 ± 0.27
CGACAGCAAUAUUACGAAUC | -2.71 ± 0.34 | -4.11 ± 0.46
CGACAGCAAUAUUACGACAU | -1.33 ± 0.033 | -2.444 ± 0.014
CGACAGCAAUAUUACGACCC | 0.117 ± 0.23 | -1.31 ± 0.19
CGACAGCAAUAUUACGACCU | 0.317 ± 0.11 | -1.56 ± 0.099
CGACAGCAAUAUUACGACUA | 0.027 ± 0.092 | -2.15 ± 0.13
CGACAGCAAUAUUACGACUC | -1.18 ± 0.15 | -2.83 ± 0.18
CGACAGCAAUAUUACGAGAA | -2.41 ± 0.23 | –
CGACAGCAAUAUUACGAGCU | -2.17 ± 0.17 | -2.86 ± 0.15
CGACAGCAAUAUUACGAGGA | -2.53 ± 0.18 | -3.91 ± 0.2
